The text below walks through data of US20230357353A1 (RAMOT AT TEL AVIV UNIVERSITY, published 2023).

Experiment [1] addresses T1, high affinity (HA) α4β7 integrin on activated cells (Mn2+-treated TK-1 cells or primary mouse leukocytes) (mouse, UniProt Q00651 41-1039; P26011 20-806).
T1 construct: whole, on cells; Same polypeptides as m4; also called LPAM-1
Description: flow cytometry on Mn2+-treated TK-1 cells. Here is the method: (§1) In-vitro binding—TK-1 cells were activated according to Y. Yang et al.³⁰. Briefly, cells were washed with PBS and resuspended in resuspension buffer (HBSS with 10 mM HEPES buffer, 2 mM CaCl₂ and 2 mM MgCl₂). Non-activated cells were kept on ice while activated cells were resuspended in pre-incubation buffer (HBSS with 10 mM HEPES buffer and 2 mM EDTA), incubated at RT for 30 minutes with gentle rotation, washed with PBS and finally resuspended in activation buffer (HBSS with 10 mM HEPES buffer, 2 mM CaCl₂ and 2 mM MnCl₂). MAdCAM-D1D2-Fc and the controls were added to both activated and non-activated cells and incubated for 30 minutes at 4° C. Cells were subsequently washed and stained with either anti-human IgG or anti-mouse IgG conjugated to AlexaFluor647 (Biolegend, USA). Binding of D1D2-Fc to TK-1 cells was assessed by analyzing the fluorescence of the cells by flow cytometry. Binding of D1D2-targeted Cy5-LNPs was detected by flow cytometry directly using the Cy5 fluorescence (without addition of another antibody). In the binding experiments with Cy5-LNPs, the HBSS in the activation buffer was replaced with RPMI+10% FBS due to a high background using LNPs.
(§2) Following purification, the functionality of the generated D1D2-Fc and mD1D2-Fc was tested in-vitro by assessing their binding to TK-1 cells using flow cytometry. […]
On the technique in general: In flow cytometry, cells or beads pass a laser one at a time.

The target in experiment [2] is T2, low affinity (LA) α4β7 integrin on non-activated cells (Ca2+ control, no Mn2+) (mouse, UniProt Q00651 41-1039; P26011 20-806).
T2 construct: whole, on cells
T2 sequence (Q00651 41-1039, chain 1 of 2): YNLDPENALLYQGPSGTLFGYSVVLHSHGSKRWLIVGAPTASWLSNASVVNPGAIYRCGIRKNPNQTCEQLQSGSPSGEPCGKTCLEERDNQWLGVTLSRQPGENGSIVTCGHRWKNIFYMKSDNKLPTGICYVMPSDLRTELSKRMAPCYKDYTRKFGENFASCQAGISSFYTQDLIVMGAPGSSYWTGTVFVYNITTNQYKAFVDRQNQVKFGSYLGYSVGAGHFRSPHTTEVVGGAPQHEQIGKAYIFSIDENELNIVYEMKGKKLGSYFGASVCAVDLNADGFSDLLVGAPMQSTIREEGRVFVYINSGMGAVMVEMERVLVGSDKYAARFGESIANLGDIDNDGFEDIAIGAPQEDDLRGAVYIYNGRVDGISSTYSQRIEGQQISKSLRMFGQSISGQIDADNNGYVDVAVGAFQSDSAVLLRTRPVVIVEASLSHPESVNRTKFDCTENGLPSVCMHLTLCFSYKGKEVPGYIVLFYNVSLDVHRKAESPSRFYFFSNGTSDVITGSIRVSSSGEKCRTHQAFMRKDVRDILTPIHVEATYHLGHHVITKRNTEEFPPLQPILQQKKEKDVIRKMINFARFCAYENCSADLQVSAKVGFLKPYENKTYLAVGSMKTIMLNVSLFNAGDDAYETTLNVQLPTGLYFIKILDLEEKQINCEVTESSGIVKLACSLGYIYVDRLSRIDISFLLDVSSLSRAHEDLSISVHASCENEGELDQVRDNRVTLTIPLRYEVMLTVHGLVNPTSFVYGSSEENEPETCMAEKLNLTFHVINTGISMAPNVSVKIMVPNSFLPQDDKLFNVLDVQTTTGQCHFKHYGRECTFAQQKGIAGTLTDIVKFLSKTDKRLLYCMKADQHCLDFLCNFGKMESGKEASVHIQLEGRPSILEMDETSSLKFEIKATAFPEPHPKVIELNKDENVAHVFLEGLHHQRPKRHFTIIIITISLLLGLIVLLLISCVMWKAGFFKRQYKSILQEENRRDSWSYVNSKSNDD
T2 sequence (P26011 20-806, chain 2 of 2): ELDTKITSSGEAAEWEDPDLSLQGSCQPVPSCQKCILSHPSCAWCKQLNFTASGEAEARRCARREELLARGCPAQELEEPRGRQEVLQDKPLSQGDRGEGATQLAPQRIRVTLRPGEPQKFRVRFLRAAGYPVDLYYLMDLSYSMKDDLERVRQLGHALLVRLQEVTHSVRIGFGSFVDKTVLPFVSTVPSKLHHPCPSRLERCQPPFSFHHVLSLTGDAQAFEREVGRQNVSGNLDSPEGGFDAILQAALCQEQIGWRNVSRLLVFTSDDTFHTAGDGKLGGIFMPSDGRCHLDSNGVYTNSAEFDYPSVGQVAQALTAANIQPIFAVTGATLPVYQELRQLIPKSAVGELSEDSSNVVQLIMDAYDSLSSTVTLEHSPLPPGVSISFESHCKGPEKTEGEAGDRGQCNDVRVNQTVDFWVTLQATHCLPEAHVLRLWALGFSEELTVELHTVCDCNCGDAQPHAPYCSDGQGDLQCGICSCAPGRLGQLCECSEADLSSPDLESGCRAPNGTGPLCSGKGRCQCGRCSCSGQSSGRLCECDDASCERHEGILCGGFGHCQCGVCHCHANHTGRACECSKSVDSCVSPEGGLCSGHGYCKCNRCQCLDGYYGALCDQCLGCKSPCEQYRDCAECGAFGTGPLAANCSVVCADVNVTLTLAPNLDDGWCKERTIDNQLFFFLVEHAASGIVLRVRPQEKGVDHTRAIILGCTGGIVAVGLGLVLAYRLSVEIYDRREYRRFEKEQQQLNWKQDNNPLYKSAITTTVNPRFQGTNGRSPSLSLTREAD
Description: flow cytometry on TK-1 cells without Mn2+ (Ca2+ control). The protocol: as §1, §2

T1 sequence (Q00651 41-1039, chain 1 of 2): as the sequence (Q00651 41-1039, chain 1 of 2) above
T1 sequence (P26011 20-806, chain 2 of 2): as the sequence (P26011 20-806, chain 2 of 2) above

B1: MAdCAM-mD1D2-Fc fusion protein (D62A mutated control) (Fc fusion)
chain: DYKDDDDKLAAAQSFQVNPPESEVAVAMGTSLQITCSMSCDEGVARVHWRGLATSLGSVQTLPGSSILSVRGMLSDTGTPVCVGSCGSRSFQHSVKILVYAFPDQLVVSPEFLVPGQDQVVSCTAHNIWPADPNSLSFALLLGEQRLEGAQALEPEQEEEIQEAEGTPLFRMTQRWRLPSLGTPAPPALHCQVTMQLPKLVLTHRKEIPVLGGGGSGGGGSGGGGSVPRECNPCGCTGSEVSSVFIFPPKTKDVLTITLTPKVTCVVVDISQNDPEVRFSWFIDDVEVHTAQTHAPEKQSNSTLRSVSELPIVHRDWLNGKTFKCKVNSGAFPAPIEKSISKPEGTPRGPQVYTMAPPKEEMTQSQVSITCMVKGFYPPDIYTEWKMNGQPQENYKNTPPTMDTDGSYFLYSKLNVKKETWQQGNTFTCSVLHEGLHNHHTEKSLSHSPGKGSGHHHHHH
notes: The signal peptide, FLAG-tag and 6x HIS-tag are as in D1D2-Fc; also called mD1D2 control; targeting protein of the mD1D2-targeted LNPs (mD1D2-LNPs)
Take B1: the binding result in experiment [1] and in experiment [2] was “no binding” each time.
